Values quoted from earlier work, collected in patent US20230210827A1, “METHODS AND COMPOSITIONS FOR TREATING ANEMIA USING ACTRIIB LIGAND TRAPS AND MTOR INHIBITORS” (Celgene Corporation, priority 2020, published 2023).
Residue numbers refer to the chain shown, from its start. Names may count otherwise.

T1: GDF-11 (Homo sapiens, UniProt O95390)
T1 sequence (O95390 299-407): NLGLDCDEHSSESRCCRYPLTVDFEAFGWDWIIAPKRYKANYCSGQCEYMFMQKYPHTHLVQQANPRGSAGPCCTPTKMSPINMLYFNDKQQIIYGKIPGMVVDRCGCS

B1: ActRIIB(20-119)-Fc: ActRIIB-Fc fusion protein containing amino acids 20-119 of SEQ ID NO:14 (SEQ ID NO:18) (protein)
chain: GRGEAETRECIYYNANWELERTNQSGLERCEGEQDKRLHCYASWRNSSGTIELVKKGCWLDDFNCYDRQECVATEENPQVYFCCCEGNFCNERFTHLPEA
modifications: human ActRIIB soluble (extracellular), processed polypeptide sequence with the C-terminal 15 aa deleted (aa 20-119 of SEQ ID NO14)
B2: A64: Fc fusion protein having ActRIIB extracellular sequence with alanine at position 64 of SEQ ID NO:2 (protein)
chain: SGRGEAETRECIYYNANWELERTNQSGLERCEGEQDKRLHCYASWANSSGTIELVKKGCWLDDFNCYDRQECVATEENPQVYFCCCEGNFCNERFTHLPEAGGPEVTYEPPPTAPTGGGTHTCPPCPAPELLGGPSVFLFPPKPKDTLMISRTPEVTCVVVDVSHEDPEVKFNWYVDGVEVHNAKTKPREEQYNSTYRVVSVLTVLHQDWLNGKEYKCKVSNKALPVPIEKTISKAKGQPREPQVYTLPPSREEMTKNQVSLTCLVKGFYPSDIAVEWESNGQPENNYKTTPPVLDSDGSFFLYSKLTVDKSRWQQGNVFSCSVMHEALHNHYTQKSLSLSPGK
modifications: fusion protein comprising a soluble extracellular domain of ActRIIB (A64; SEQ ID NO 3) fused to an Fc domain
B3: R64: Fc fusion protein with an arginine at position 64 of the ActRIIB precursor amino acid sequence (protein)
chain: B2 chain with A46R
modifications: fusion protein comprising a soluble extracellular domain of ActRIIB (R64; SEQ ID NO15) fused to an Fc domain
B4: L79D: ActRIIB extracellular domain polypeptide with L79D mutation (protein, listed as Homo sapiens)
chain: MTAPWVALALLWGSLWPGSGRGEAETRECIYYNANWELERTNQSGLERCEGEQDKRLHCYASWANSSGTIELVKKGCWDDDFNCYDRQECVATEENPQVYFCCCEGNFCNERFTHLPEAGGPEVTYEPPPTAPTLLTVLAYSLLPIGGLSLIVLLAFWMYRHRKPPYGHVDIHEDPGPPPPSPLVGLKPLQLLEIKARGRFGCVWKAQLMNDFVAVKIFPLQDKQSWQSEREIFSTPGMKHENLLQFIAAEKRGSNLEVELWLITAFHDKGSLTDYLKGNIITWNELCHVAETMSRGLSYLHEDVPWCRGEGHKPSIAHRDFKSKNVLLKSDLTAVLADFGLAVRFEPGKPPGDTHGQVGTRRYMAPEVLEGAINFQRDAFLRIDMYAMGLVLWELVSRCKAADGPVDEYMLPFEEEIGQHPSLEELQEVVVHKKMRPTIKDHWLKHPGLAQLCVTIEECWDHDAEARLSAGCVEERVSLIRRSVNGTTSDCLVSLVTSVTNVDLPPKESSI
modifications: human ActRIIB precursor protein sequence (A64)
notes: ActRIIB extracellular domain polypeptide with L79D mutation
B5: L79A: ActRIIB extracellular domain polypeptide with L79A mutation (protein, UniProt Q13705 19-137, looked up, variant L79A)
extracellular domain: SGRGEAETRECIYYNANWELERTNQSGLERCEGEQDKRLHCYASWRNSSGTIELVKKGCWADDFNCYDRQECVATEENPQVYFCCCEGNFCNERFTHLPEAGGPEVTYEPPPTAPTLLT
modifications: extracellular domain
notes: ActRIIB extracellular domain polypeptide with L79A mutation
B6: L79E: ActRIIB extracellular domain polypeptide with L79E mutation (protein, UniProt Q13705 19-137, looked up, variant L79E)
extracellular domain: B5 extracellular domain with A61E
modifications: extracellular domain
notes: ActRIIB extracellular domain polypeptide with L79E mutation
B7: L79P: ActRIIB extracellular domain polypeptide with L79P mutation (protein, UniProt Q13705 19-137, looked up, variant L79P)
extracellular domain: B5 extracellular domain with A61P
modifications: extracellular domain
notes: ActRIIB extracellular domain polypeptide with L79P mutation

Assays:
activin = details: ActRIIB variants; background statements
GDF-11 = target: T1, GDF-11; details: ActRIIB variants; background statements

Molecule | affinity for / binding to activin (activin) | affinity for / binding to GDF-11 (GDF-11)
B1 | reduced binding to GDF-11 and activin | reduced binding to GDF-11 and activin
B2 | relatively low affinity | relatively low affinity
B3 | low nanomolar to high picomolar range | low nanomolar to high picomolar range
B4 | greatly reduced activin binding | retain GDF-11 binding
B5 |  | reduce GDF-11 binding to a greater extent than activin binding
B6 | greatly reduced activin binding | retain GDF-11 binding
B7 |  | reduce GDF-11 binding to a greater extent than activin binding
